Experimental data reported in publication PMC10923291, “Quantitative description of the phase-separation behavior of the multivalent SLP65–CIN85 complex” (PNAS Nexus, 2024).
Substitutions are numbered along the chain they refer to.

B1: SLP65_(1-330) (domain or fragment, UniProt Q8WV28 1-330, looked up)
chain: MDKLNKITVPASQKLRQLQKMVHDIKNNEGGIMNKIKKLKVKAPPSVPRRDYASESPADEEEQWSDDFDSDYENPDEHSDSEMYVMPAEENADDSYEPPPVEQETRPVHPALPFARGEYIDNRSSQRHSPPFSKTLPSKPSWPSEKARLTSTLPALTALQKPQVPPKPKGLLEDEADYVVPVEDNDENYIHPTESSSPPPEKAPMVNRSTKPNSSTPASPPGTASGRNSGAWETKSPPPAAPSPLPRAGKKPTTPLKTTPVASQQNASSVCEEKPIPAERHRGSSHRQEAVQSPVFPPAQKQIHQKPIPLPRFTEGGNPTVDGPLPSFSS
notes: Src homology 2 domain-containing leukocyte protein of 65 kDa (SLP65, BLNK), shortened at the C-terminus, residues 1-330, lacks the C-terminal SH2 domain; also called Wildtype SLP65_(1-330); BLNK
B2: SLP65-3xPRM4 (domain or fragment)
chain: B1 chain with I276S, A278L, E279P, I308S
modifications: 1-330 is printed; the text says PRMs are six residues long. The swapped limits are assumed: PRM5 275-280 and PRM6 307-312, each replaced by PRM4 242-247. Partly Atto430LS-labelled for microscopy.
B3: SLP65-R247A (domain or fragment, UniProt Q8WV28 1-330, looked up)
chain: B1 chain with R247A
notes: the C-terminally shortened version (1-330) was used for measurements
B4: CIN85-BBB (domain or fragment)
chain: RRRRRCQVAFSYLPQNDDELELKVGDIIEVVGEVEEGWWEGVLNGKTGMFPSNFIKELSGEMKKDPLTNKAPEKPLHEVPSGNSLLSSETILRTNKRGERRRRRCQVAFSYLPQNDDELELKVGDIIEVVGEVEEGWWEGVLNGKTGMFPSNFIKELSGESDELGISQDEQLSKSSLRETTGSESDGGDSSSTKSEGANGTVATAAIQPKKVKGVGFGDIFKDKPIKLRPRSIEVENDFLPVEKTIGKKLPATTATPDSSKTEMDSRTRRRRRCQVAFSYLPQNDDELELKVGDIIEVVGEVEEGWWEGVLNGKTGMFPSNFIKELSGDFEKE

Key:
Assay in all cases: ITC; multivalent SLP65 constructs with multivalent CIN85 constructs (global KD); conditions in the SI Appendix
Settings in all cases: both partners purified
CIN85-ABC = molecular target: T1, CIN85-ABC (UniProt Q96B97 1-333)
T1 construct: also called CIN85_(1-333); wildtype-like CIN85-ABC construct
T1 sequence (looked up): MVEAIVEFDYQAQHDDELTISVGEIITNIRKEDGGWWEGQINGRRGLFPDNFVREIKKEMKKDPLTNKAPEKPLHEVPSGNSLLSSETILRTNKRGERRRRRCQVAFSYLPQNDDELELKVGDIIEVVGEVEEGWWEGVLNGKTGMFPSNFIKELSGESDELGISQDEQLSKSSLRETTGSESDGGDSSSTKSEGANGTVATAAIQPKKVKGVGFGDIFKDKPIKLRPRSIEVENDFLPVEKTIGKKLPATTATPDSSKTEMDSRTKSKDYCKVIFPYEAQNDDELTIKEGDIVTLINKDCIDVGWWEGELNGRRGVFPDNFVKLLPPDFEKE

CIN85-BBB = molecular target: B4
SLP65_(1-330) = molecular target: B1

B1
Kd (CIN85-ABC): 1360 ± 170 nM

B2
Kd (CIN85-BBB): 140 ± 60 nM | Kd (CIN85-ABC): 240 ± 10 nM

B3
Kd (CIN85-ABC): 7040 ± 1120 nM

B4
Kd (SLP65_(1-330)): 700 ± 250 nM
